Paper PMC9482650, “Quantitative fragmentomics allow affinity mapping of interactomes” (Nature Communications, 2022)

Tests used:
Assay in all cases: holdup assay
Design in all cases: key: below the threshold = too weak to quantify, mostly under pKd 3.1 to 4
DLG2_3, Q15700 = target: DLG2_3, Q15700
PDZD7_3, Q9H5P4 = target: T1, PDZD7_3, Q9H5P4
T1 sequence (Q9H5P4 857-944, limits assumed, looked up): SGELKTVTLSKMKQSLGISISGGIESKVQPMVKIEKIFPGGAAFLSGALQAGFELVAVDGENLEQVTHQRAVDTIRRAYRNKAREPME

SCRIB_1, Q14160 = target: SCRIB_1, Q14160
SCRIB_1, Q14160, sequence (Q14160 718-814): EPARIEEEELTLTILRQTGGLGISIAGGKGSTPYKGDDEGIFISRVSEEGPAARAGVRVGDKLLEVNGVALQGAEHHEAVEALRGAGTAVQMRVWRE

APBA2_1, Q99767 = target: T2, APBA2_1, Q99767
T2 sequence (Q99767 563-664, limits assumed, looked up): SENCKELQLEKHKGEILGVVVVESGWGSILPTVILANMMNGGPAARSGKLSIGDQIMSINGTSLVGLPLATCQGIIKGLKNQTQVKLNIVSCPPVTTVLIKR

PICK1, Q9NRD5 = target: PICK1, Q9NRD5
PICK1, Q9NRD5, sequence (Q9NRD5 17-115): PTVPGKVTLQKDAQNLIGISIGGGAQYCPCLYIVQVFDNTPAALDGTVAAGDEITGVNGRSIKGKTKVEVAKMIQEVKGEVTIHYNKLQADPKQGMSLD

Inadl_4, Q8NI35 = target: Inadl_4, Q8NI35
Inadl_4, Q8NI35, sequence (Q8NI35 547-651): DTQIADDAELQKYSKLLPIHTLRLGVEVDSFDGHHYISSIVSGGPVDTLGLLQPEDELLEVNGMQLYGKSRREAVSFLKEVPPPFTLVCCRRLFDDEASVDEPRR

ARHGEF12, Q9NZN5-2 = target: ARHGEF12, Q9NZN5-2
ARHGEF12, Q9NZN5-2, sequence (Q9NZN5 other isoform, or with tags, fused parts or gaps): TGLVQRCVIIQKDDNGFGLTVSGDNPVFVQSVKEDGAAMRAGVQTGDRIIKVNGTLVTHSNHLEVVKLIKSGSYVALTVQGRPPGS

HTRA2, O43464 = target: HTRA2, O43464
HTRA2, O43464, sequence (O43464 355-458): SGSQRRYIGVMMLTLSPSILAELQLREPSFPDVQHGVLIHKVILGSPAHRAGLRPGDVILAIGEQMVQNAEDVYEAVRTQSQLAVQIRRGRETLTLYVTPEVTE

LNX1_2, Q8TBB1 = target: LNX1_2, Q8TBB1
LNX1_2, Q8TBB1, sequence (Q8TBB1 371-470): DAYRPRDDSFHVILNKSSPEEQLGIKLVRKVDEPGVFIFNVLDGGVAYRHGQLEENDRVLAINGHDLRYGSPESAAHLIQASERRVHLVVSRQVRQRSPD

PDLIM1, O00151 = target: PDLIM1, O00151
PDLIM1, O00151, sequence (O00151 1-87): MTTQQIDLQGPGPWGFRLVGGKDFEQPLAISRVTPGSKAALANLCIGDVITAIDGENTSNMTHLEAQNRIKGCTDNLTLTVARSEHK

GIPC2, Q8TF65 = target: GIPC2, Q8TF65
GIPC2, Q8TF65, sequence (Q8TF65 112-203): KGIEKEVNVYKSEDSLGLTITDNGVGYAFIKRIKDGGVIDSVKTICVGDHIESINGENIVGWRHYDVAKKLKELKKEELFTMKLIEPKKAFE

GRIP1_3, Q9Y3R0 = target: T3, GRIP1_3, Q9Y3R0
T3 sequence (Q9Y3R0 247-346, limits assumed, looked up): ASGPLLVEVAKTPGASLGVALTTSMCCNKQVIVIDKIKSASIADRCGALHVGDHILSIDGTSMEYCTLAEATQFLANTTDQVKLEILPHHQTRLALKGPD

Inadl_1, Q8NI35 = target: Inadl_1, Q8NI35
Inadl_1, Q8NI35, sequence (Q8NI35 113-229): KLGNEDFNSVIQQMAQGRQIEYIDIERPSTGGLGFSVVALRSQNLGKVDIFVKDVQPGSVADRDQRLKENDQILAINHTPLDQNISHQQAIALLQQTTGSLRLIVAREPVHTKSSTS

GOPC, Q9HD26 = target: GOPC, Q9HD26
GRIP1_2, Q9Y3R0 = target: T4, GRIP1_2, Q9Y3R0
T4 sequence (Q9Y3R0 145-248, limits assumed, looked up): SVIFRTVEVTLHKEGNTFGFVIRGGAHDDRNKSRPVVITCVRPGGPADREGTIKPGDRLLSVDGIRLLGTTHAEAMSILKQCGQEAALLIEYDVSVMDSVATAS

GRIP2_7, Q9C0E4 = target: GRIP2_7, Q9C0E4
GRIP2_7, Q9C0E4, sequence (Q9C0E4 934-1023): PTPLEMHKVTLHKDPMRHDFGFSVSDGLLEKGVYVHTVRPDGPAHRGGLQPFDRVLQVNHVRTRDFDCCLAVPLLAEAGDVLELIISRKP

Inadl_3, Q8NI35 = target: Inadl_3, Q8NI35
Inadl_3, Q8NI35, sequence (Q8NI35 359-469): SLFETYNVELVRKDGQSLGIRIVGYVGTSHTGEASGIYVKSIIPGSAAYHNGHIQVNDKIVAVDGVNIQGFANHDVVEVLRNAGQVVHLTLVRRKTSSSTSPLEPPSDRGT

PTPN13_1, Q12923 = target: T5, PTPN13_1, Q12923
T5 sequence (Q12923 1088-1188, limits assumed, looked up): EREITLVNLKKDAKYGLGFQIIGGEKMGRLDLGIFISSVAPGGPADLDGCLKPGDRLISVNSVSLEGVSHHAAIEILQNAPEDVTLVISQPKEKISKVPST

ARHGEF11, O15085 = target: T6, ARHGEF11, O15085
T6 sequence (O15085 42-136, limits assumed, looked up): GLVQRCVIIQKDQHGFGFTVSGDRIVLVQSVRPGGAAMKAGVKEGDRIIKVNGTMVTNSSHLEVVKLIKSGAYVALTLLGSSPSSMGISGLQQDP

MAST2, Q6P0Q8 = target: MAST2, Q6P0Q8
MAST2, Q6P0Q8, sequence (Q6P0Q8 1099-1202): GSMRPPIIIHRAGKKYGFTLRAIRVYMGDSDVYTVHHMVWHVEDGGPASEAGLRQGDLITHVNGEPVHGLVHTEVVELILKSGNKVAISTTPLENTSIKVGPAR

DLG2_2, Q15700 = target: DLG2_2, Q15700
LDB3, O75112 = target: LDB3, O75112
LDB3, O75112, sequence (O75112 1-94): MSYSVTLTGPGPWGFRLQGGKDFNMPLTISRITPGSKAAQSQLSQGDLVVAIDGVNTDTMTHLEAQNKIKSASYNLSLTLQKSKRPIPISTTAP

SIPA1L2, Q9P2F8 = target: T7, SIPA1L2, Q9P2F8
T7 sequence (Q9P2F8 945-1036, limits assumed, looked up): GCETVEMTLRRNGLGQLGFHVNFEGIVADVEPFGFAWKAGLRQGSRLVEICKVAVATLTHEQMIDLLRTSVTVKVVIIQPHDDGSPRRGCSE

LNX2_2, Q8N448 = target: T8, LNX2_2, Q8N448
T8 sequence (Q8N448 334-432, limits assumed, looked up): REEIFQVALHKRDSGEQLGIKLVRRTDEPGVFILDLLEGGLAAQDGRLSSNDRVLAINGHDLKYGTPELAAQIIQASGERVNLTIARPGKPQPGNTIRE

SNTA1, Q13424 = target: T9, SNTA1, Q13424
T9 sequence (Q13424 82-180, limits assumed, looked up): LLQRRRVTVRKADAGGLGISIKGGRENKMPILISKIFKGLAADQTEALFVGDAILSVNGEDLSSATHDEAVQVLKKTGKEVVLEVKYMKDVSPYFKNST

MPDZ_12, O75970 = target: T10, MPDZ_12, O75970
T10 sequence (O75970 1857-1958, limits assumed, looked up): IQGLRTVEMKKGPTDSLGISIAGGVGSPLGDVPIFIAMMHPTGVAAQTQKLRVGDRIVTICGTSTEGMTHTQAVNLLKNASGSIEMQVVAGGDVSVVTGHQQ

GRIP1_4, Q9Y3R0 = target: T11, GRIP1_4, Q9Y3R0
T11 sequence (Q9Y3R0 467-571, limits assumed, looked up): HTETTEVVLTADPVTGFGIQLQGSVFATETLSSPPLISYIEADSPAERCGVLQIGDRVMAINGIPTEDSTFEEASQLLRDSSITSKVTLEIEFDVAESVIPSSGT

[1] = plain residues with an end cap or a label only (N-terminal biotin on a linker: ado-ado)
[2] = plain residues with an end cap or a label only (N-terminal biotin on a linker: (peg)3)

B1: SLC22A9, Q8IVM8 (peptide)
chain: EDPRVEVTQF
pKd (DLG2_3, Q15700; [1]): 3.71 | pKd (PDZD7_3, Q9H5P4; [1]): 4.23 | pKd (SCRIB_1, Q14160; [1]): 3.91 | pKd (APBA2_1, Q99767; [1]): below the threshold | pKd (PICK1, Q9NRD5; [1]): below the threshold | pKd (Inadl_4, Q8NI35; [1]): below the threshold | pKd (ARHGEF12, Q9NZN5-2; [1]): below the threshold | pKd (HTRA2, O43464; [1]): below the threshold | pKd (LNX1_2, Q8TBB1; [1]): below the threshold | pKd (PDLIM1, O00151; [1]): below the threshold | pKd (GIPC2, Q8TF65; [1]): below the threshold | pKd (GRIP1_3, Q9Y3R0; [1]): below the threshold | pKd (Inadl_1, Q8NI35; [1]): below the threshold | pKd (GOPC, Q9HD26; [1]): below the threshold | pKd (GRIP1_2, Q9Y3R0; [1]): below the threshold | pKd (GRIP2_7, Q9C0E4; [1]): below the threshold | pKd (Inadl_3, Q8NI35; [1]): below the threshold | pKd (PTPN13_1, Q12923; [1]): below the threshold | pKd (ARHGEF11, O15085; [1]): below the threshold | pKd (MAST2, Q6P0Q8; [1]): 5.4 | pKd (DLG2_2, Q15700; [1]): below the threshold | pKd (LDB3, O75112; [1]): below the threshold | pKd (SIPA1L2, Q9P2F8; [1]): below the threshold | pKd (LNX2_2, Q8N448; [1]): below the threshold | pKd (SNTA1, Q13424; [1]): below the threshold | pKd (MPDZ_12, O75970; [1]): below the threshold | pKd (GRIP1_4, Q9Y3R0; [1]): below the threshold

B2: PLEKHA1, Q9HB21 (peptide)
chain: DDASLPVSDV
pKd (DLG2_3, Q15700; [1]): below the threshold | pKd (PDZD7_3, Q9H5P4; [1]): 5.22 | pKd (SCRIB_1, Q14160; [1]): below the threshold | pKd (APBA2_1, Q99767; [1]): below the threshold | pKd (PICK1, Q9NRD5; [1]): below the threshold | pKd (Inadl_4, Q8NI35; [1]): below the threshold | pKd (ARHGEF12, Q9NZN5-2; [1]): 4.36 | pKd (HTRA2, O43464; [1]): below the threshold | pKd (LNX1_2, Q8TBB1; [1]): below the threshold | pKd (PDLIM1, O00151; [1]): 3.57 | pKd (GIPC2, Q8TF65; [1]): below the threshold | pKd (GRIP1_3, Q9Y3R0; [1]): below the threshold | pKd (Inadl_1, Q8NI35; [1]): below the threshold | pKd (GOPC, Q9HD26; [1]): 4.25 | pKd (GRIP1_2, Q9Y3R0; [1]): below the threshold | pKd (GRIP2_7, Q9C0E4; [1]): below the threshold | pKd (Inadl_3, Q8NI35; [1]): below the threshold | pKd (PTPN13_1, Q12923; [1]): below the threshold | pKd (ARHGEF11, O15085; [1]): 4.22 | pKd (MAST2, Q6P0Q8; [1]): 4.73 | pKd (DLG2_2, Q15700; [1]): below the threshold | pKd (LDB3, O75112; [1]): below the threshold | pKd (SIPA1L2, Q9P2F8; [1]): below the threshold | pKd (LNX2_2, Q8N448; [1]): below the threshold | pKd (SNTA1, Q13424; [1]): 4.44 | pKd (MPDZ_12, O75970; [1]): below the threshold | pKd (GRIP1_4, Q9Y3R0; [1]): below the threshold

B3: TRIP6, Q15654 (peptide)
chain: ELSATVTTDC
pKd (DLG2_3, Q15700; [1]): 3.57 | pKd (PDZD7_3, Q9H5P4; [1]): 3.8 | pKd (SCRIB_1, Q14160; [1]): 4.48 | pKd (APBA2_1, Q99767; [1]): below the threshold | pKd (PICK1, Q9NRD5; [1]): 3.8 | pKd (Inadl_4, Q8NI35; [1]): below the threshold | pKd (ARHGEF12, Q9NZN5-2; [1]): 4.44 | pKd (HTRA2, O43464; [1]): below the threshold | pKd (LNX1_2, Q8TBB1; [1]): 3.88 | pKd (PDLIM1, O00151; [1]): below the threshold | pKd (GIPC2, Q8TF65; [1]): below the threshold | pKd (GRIP1_3, Q9Y3R0; [1]): below the threshold | pKd (Inadl_1, Q8NI35; [1]): below the threshold | pKd (GOPC, Q9HD26; [1]): below the threshold | pKd (GRIP1_2, Q9Y3R0; [1]): below the threshold | pKd (GRIP2_7, Q9C0E4; [1]): below the threshold | pKd (Inadl_3, Q8NI35; [1]): below the threshold | pKd (PTPN13_1, Q12923; [1]): below the threshold | pKd (ARHGEF11, O15085; [1]): 4.61 | pKd (MAST2, Q6P0Q8; [1]): 4.9 | pKd (DLG2_2, Q15700; [1]): 3.59 | pKd (LDB3, O75112; [1]): 3.72 | pKd (SIPA1L2, Q9P2F8; [1]): below the threshold | pKd (LNX2_2, Q8N448; [1]): 3.76 | pKd (SNTA1, Q13424; [1]): 3.92 | pKd (MPDZ_12, O75970; [1]): below the threshold | pKd (GRIP1_4, Q9Y3R0; [1]): below the threshold

B4: SARS-Cov2-N, P0DTC9 (peptide)
chain: QQSMSSADSTQA
pKd (DLG2_3, Q15700; [2]): below the threshold | pKd (PDZD7_3, Q9H5P4; [2]): below the threshold | pKd (SCRIB_1, Q14160; [2]): below the threshold | pKd (APBA2_1, Q99767; [2]): below the threshold | pKd (PICK1, Q9NRD5; [2]): below the threshold | pKd (Inadl_4, Q8NI35; [2]): below the threshold | pKd (ARHGEF12, Q9NZN5-2; [2]): below the threshold | pKd (HTRA2, O43464; [2]): below the threshold | pKd (LNX1_2, Q8TBB1; [2]): below the threshold | pKd (PDLIM1, O00151; [2]): below the threshold | pKd (GIPC2, Q8TF65; [2]): below the threshold | pKd (GRIP1_3, Q9Y3R0; [2]): below the threshold | pKd (Inadl_1, Q8NI35; [2]): below the threshold | pKd (GOPC, Q9HD26; [2]): below the threshold | pKd (GRIP1_2, Q9Y3R0; [2]): below the threshold | pKd (GRIP2_7, Q9C0E4; [2]): below the threshold | pKd (Inadl_3, Q8NI35; [2]): below the threshold | pKd (PTPN13_1, Q12923; [2]): below the threshold | pKd (ARHGEF11, O15085; [2]): below the threshold | pKd (MAST2, Q6P0Q8; [2]): below the threshold | pKd (DLG2_2, Q15700; [2]): below the threshold | pKd (LDB3, O75112; [2]): below the threshold | pKd (SIPA1L2, Q9P2F8; [2]): below the threshold | pKd (LNX2_2, Q8N448; [2]): below the threshold | pKd (SNTA1, Q13424; [2]): below the threshold | pKd (MPDZ_12, O75970; [2]): below the threshold | pKd (GRIP1_4, Q9Y3R0; [2]): below the threshold
